The record followed here is article PMC11578894.

The target in this experiment is His6–Gp54^Bas11 (phage Bas11). As to the kind of experiment: ITC; CapRel^SJ46 in the syringe at 200 µM titrated into Gp54^Bas11 in the cell at 10 µM (Gp54^Bas11(G24D) was used at 260 µM); 30 °C; 50 mM HEPES pH 7.5, 500 mM KCl, 500 mM NaCl, 2 mM MgCl2, 1 mM TCEP. A general note: ITC needs no label: the signal is the heat of the interaction.

Broadly, the Kd is the free concentration of one partner at which half of the binding sites on the other are occupied at equilibrium, for simple one-to-one binding. Lower therefore signals higher affinity. A word on the stoichiometry N: it is the number of molecules, sites or subunits per partner or assembly. For His6–MBP–CapRel^SJ46 (natural protein), the Kd turned out to be 0.8 µM and the stoichiometry N came out at 1.
